T1: Human GDF15 Fc (human) (UniProt Q99988)
T1 sequence (chain, biotinylated (EZ-Link Sulfo-NHS-Biotinylation Kit) where printed as biotinylated): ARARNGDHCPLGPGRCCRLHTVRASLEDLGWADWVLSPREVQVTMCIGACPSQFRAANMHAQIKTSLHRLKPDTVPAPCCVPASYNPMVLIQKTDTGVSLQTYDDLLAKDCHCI

B1: Clone K IgG (antibody, V domains shown)
VH: QVQLVQSGAEVKKPGASVKVSCKASGYTFTNEGISWVRQAPGQGLEWMGWISAYTADTFYAQKLQGRVTMTTDTSTSTAYMELRSLRSDDTAVYYCARTRHDTSGLRFDYWGQGTLVTVSS
VL: DIQMTQSPSSVSASVGDRVTITCRASQGIDSWLAWYQQKPGKAPKLLIYAASSLQSGVPSRFSGSGSGTDFTLTISSLQPEDFATYYCQQVHSFPITFGGGTKVEIKR
B2: Clone P IgG (antibody, V domains shown)
VH: QVQLVQSGAEVKKPGATVKVSCKASGYTFDSYGIHWVRQAPGQGLEWMGWITAYSGDTVYAQKLQGRVTMTTDTSTSTAYMELRSLRSDDTAVYYCARESGQTSSALGPWGQGTLVTVSS
VL: DIQMTQSPSSVSASVGDRVTITCRASQGISRWLAWYQQKPGKAPKLLIYAASSLQSGVPSRFSGSGSGTDFTLTISSLQPEDFATYYCQQGASFPLTFGGGTKVEIKR
B3: Clone O IgG (antibody, V domains shown)
VH: QVQLVQSGAEVKKPGATVKVSCKASGYTFDSLGMSWVRQAPGQGLEWMGYISTYSGDTVYAQKLQGRVTMTTDTSTSTAYMELRSLRSDDTAVYYCARESGQQVSALDPWGQGTLVTVSS
VL: DIQMTQSPSSVSASVGDRVTITCRASQGISRWLAWYQQKPGKAPKLLIYAASSLQSGVPSRFSGSGSGTDFTLTISSLQPEDFATYYCQQGASFPLTFGGGTKVEIKR
B4: Clone L IgG (antibody, V domains shown)
VH: QVQLVQSGAEVKKPGASVKVSCKASGYTFASYDIIWVRQAPGQGLEWMGWISALSGDTVYAQKLQGRVTMTTDTSTSTAYMELRSLRSDDTAVYYCARTRHDTSGIRFDYWGQGTLVTVSS
VL: DIQMTQSPSSVSASVGDRVTITCRASQGIDSWLAWYQQKPGKAPKLLIYAASSLQSGVPSRFSGSGSGTDFTLTISSLQPEDFATYYCQQVHSFPITFGGGTKVEIKR
B5: Clone E Fab (Fab, V domains shown)
VH: QVQLVQSGAEVKKPGASVKVSCKASGYTFTSYGINWVRQAPGQGLEWMGWITAYSGDTNYAQKLQGRVTMTTDTSTSTAYMELRSLRSDDTAVYYCARGPGQYADVDVWGQGTMVTVSS
VL: DIQMTQSPSSVSASVGDRVTITCRASQGISSWLAWYQQKPGKAPKLLIYAASSLQSGVPSRFSGSGSGTDFTLTISSLQPEDFATYYCQQANSFPITFGGGTKVEIK
B6: Clone J Fab (Fab, V domains shown)
VH: QVQLVQSGAEVKKPGASVKVSCKASGYTFTSYGINWVRQAPGQGLEWMGWIDAYSGSTNYAQKLQGRVTMTTDTSTSTAYMELRSLRSDDTAVYYCARGPGQYADVDVWGQGTMVTVSS
VL: DIQMTQSPSSVSASVGDRVTITCRASQGISSWLAWYQQKPGKAPKLLIYAASSLQSGVPSRFSGSGSGTDFTLTISSLQPEDFATYYCQQANSFPITFGGGTKVEIK
B7: Clone P Fab (Fab, V domains shown)
VH: QVQLVQSGAEVKKPGATVKVSCKASGYTFDSYGIHWVRQAPGQGLEWMGWITAYSGDTVYAQKLQGRVTMTTDTSTSTAYMELRSLRSDDTAVYYCARESGQTSSALGPWGQGTLVTVSS
VL: DIQMTQSPSSVSASVGDRVTITCRASQGISRWLAWYQQKPGKAPKLLIYAASSLQSGVPSRFSGSGSGTDFTLTISSLQPEDFATYYCQQGASFPLTFGGGTKVEIK
B8: Clone S Fab (Fab, V domains shown)
VH: QVQLVQSGAEVKKPGASVKVSCKASGYTFTSYGINWVRQAPGQGLEWMGWITAYSGDTNYAQKLQGRVTMTTDTSTSTAYMELRSLRSDDTAVYYCARGPGQYADVDVWGQGTMVTVSS
VL: DIQLTQSPSSVSASVGDRVTITCRASQGISPWLAWYQQKPGKAPKLLIYAASSLQSGVPSRFSGSGSGTDFTLTISSLQPEDFATYYCQQANSFPITFGGGTKVEIK
B9: Clone O Fab (Fab, V domains shown)
VH: QVQLVQSGAEVKKPGATVKVSCKASGYTFDSLGMSWVRQAPGQGLEWMGYISTYSGDTVYAQKLQGRVTMTTDTSTSTAYMELRSLRSDDTAVYYCARESGQQVSALDPWGQGTLVTVSS
VL: DIQMTQSPSSVSASVGDRVTITCRASQGISRWLAWYQQKPGKAPKLLIYAASSLQSGVPSRFSGSGSGTDFTLTISSLQPEDFATYYCQQGASFPLTFGGGTKVEIK
B10: Clone T Fab (Fab, V domains shown)
VH: QVQLVQSGAEVKKPGASVKVSCKASGYTFTSYGINWVRQAPGQGLEWMGWITAYSGDTNYAQKLQGRVTMTTDTSTSTAYMELRSLRSDDTAVYYCARGPGQYADVDVWGQGTMVTVSS
VL: DIQMTQSPSSVSASVGDRVTITCRASQGISSWLAWYQQKPGKAPKLLIYAASSLQSGVPSRFSGSGSGTDFTLTISSLQPEDFATYYCQQASQFPITFGGGTKVEIK
B11: Clone E IgG (antibody, V domains shown)
VH: QVQLVQSGAEVKKPGASVKVSCKASGYTFTSYGINWVRQAPGQGLEWMGWITAYSGDTNYAQKLQGRVTMTTDTSTSTAYMELRSLRSDDTAVYYCARGPGQYADVDVWGQGTMVTVSS
VL: DIQMTQSPSSVSASVGDRVTITCRASQGISSWLAWYQQKPGKAPKLLIYAASSLQSGVPSRFSGSGSGTDFTLTISSLQPEDFATYYCQQANSFPITFGGGTKVEIKR
B12: Clone J IgG (antibody, V domains shown)
VH: QVQLVQSGAEVKKPGASVKVSCKASGYTFTSYGINWVRQAPGQGLEWMGWIDAYSGSTNYAQKLQGRVTMTTDTSTSTAYMELRSLRSDDTAVYYCARGPGQYADVDVWGQGTMVTVSS
VL: DIQMTQSPSSVSASVGDRVTITCRASQGISSWLAWYQQKPGKAPKLLIYAASSLQSGVPSRFSGSGSGTDFTLTISSLQPEDFATYYCQQANSFPITFGGGTKVEIKR
B13: Clone L Fab (Fab, V domains shown)
VH: QVQLVQSGAEVKKPGASVKVSCKASGYTFASYDIIWVRQAPGQGLEWMGWISALSGDTVYAQKLQGRVTMTTDTSTSTAYMELRSLRSDDTAVYYCARTRHDTSGIRFDYWGQGTLVTVSS
VL: DIQMTQSPSSVSASVGDRVTITCRASQGIDSWLAWYQQKPGKAPKLLIYAASSLQSGVPSRFSGSGSGTDFTLTISSLQPEDFATYYCQQVHSFPITFGGGTKVEIK
B14: Clone I Fab (Fab, V domains shown)
VH: QVQLVQSGAEVKKPGASVKVSCKASGYTFTDEGINWVRQAPGQGLEWMGWITAYSGDTVYAQKLQGRVTMTTDTSTSTAYMELRSLRSDDTAVYYCARGPGQYADVDVWGQGTMVTVSS
VL: DIQMTQSPSSVSASVGDRVTITCRASQGISSWLAWYQQKPGKAPKLLIYAASSLQSGVPSRFSGSGSGTDFTLTISSLQPEDFATYYCQQANSFPITFGGGTKVEIK
B15: Clone K Fab (Fab, V domains shown)
VH: QVQLVQSGAEVKKPGASVKVSCKASGYTFTNEGISWVRQAPGQGLEWMGWISAYTADTFYAQKLQGRVTMTTDTSTSTAYMELRSLRSDDTAVYYCARTRHDTSGLRFDYWGQGTLVTVSS
VL: DIQMTQSPSSVSASVGDRVTITCRASQGIDSWLAWYQQKPGKAPKLLIYAASSLQSGVPSRFSGSGSGTDFTLTISSLQPEDFATYYCQQVHSFPITFGGGTKVEIK
B16: Clone I IgG (antibody, V domains shown)
VH: QVQLVQSGAEVKKPGASVKVSCKASGYTFTDEGINWVRQAPGQGLEWMGWITAYSGDTVYAQKLQGRVTMTTDTSTSTAYMELRSLRSDDTAVYYCARGPGQYADVDVWGQGTMVTVSS
VL: DIQMTQSPSSVSASVGDRVTITCRASQGISSWLAWYQQKPGKAPKLLIYAASSLQSGVPSRFSGSGSGTDFTLTISSLQPEDFATYYCQQANSFPITFGGGTKVEIKR

Legend:
Human GDF15 Fc (human) [1] = molecular target: T1, Human GDF15 Fc (human); assay: Octet BLI, IgG on tip, avid
Human GDF15 Fc (human) [2] = molecular target: T1, Human GDF15 Fc (human); assay: Octet BLI, Fab monovalent
Human GDF15 Fc (human) [3] = molecular target: T1, Human GDF15 Fc (human); assay: SPR Biacore, Fab monovalent

Binder	Kd (Human GDF15 Fc (human) [1])	Kd (Human GDF15 Fc (human) [2])	Kd (Human GDF15 Fc (human) [3])	koff (Human GDF15 Fc (human) [3])	kon (Human GDF15 Fc (human) [3])
B1	0.271 nM				
B2	0.274 nM				
B3	0.379 nM				
B4	0.325 nM				
B5		0.921 nM	0.0331 nM	8.71e-05 s⁻¹	2.63e+06 M⁻¹ s⁻¹
B6		1.28 nM	0.0884 nM	0.000404 s⁻¹	4.57e+06 M⁻¹ s⁻¹
B7		3.68 nM	0.126 nM	0.0021 s⁻¹	1.66e+07 M⁻¹ s⁻¹
B8		0.48 nM	0.0369 nM	4.93e-05 s⁻¹	1.34e+06 M⁻¹ s⁻¹
B9		0.216 nM	0.0341 nM	7.11e-05 s⁻¹	2.08e+06 M⁻¹ s⁻¹
B10		0.613 nM	0.0411 nM	4.52e-05 s⁻¹	1.1e+06 M⁻¹ s⁻¹
B11	0.278 nM				
B12	0.276 nM				
B13		1.58 nM	0.144 nM	0.000576 s⁻¹	3.99e+06 M⁻¹ s⁻¹
B14		1.25 nM	0.0672 nM	0.000259 s⁻¹	3.85e+06 M⁻¹ s⁻¹
B15		2.11 nM	0.23 nM	0.00112 s⁻¹	4.87e+06 M⁻¹ s⁻¹
B16	0.262 nM				

Source: US20250019427A1
